Measured values from patent US6428965 (Johns Hopkins, dated 2002).
Values belong to the binder of their own block, whether it stands above or below them.

Assays:
[1] = target: T1, myc-tagged soluble neuropilin extracellular domain (myc-neuropilin^ex) (rat, UniProt Q9QWJ9 22-855); assay: co-immunoprecipitation with anti-myc antibody, AP activity
T1 construct: Expressed in COS cells and used as culture medium
T1 sequence: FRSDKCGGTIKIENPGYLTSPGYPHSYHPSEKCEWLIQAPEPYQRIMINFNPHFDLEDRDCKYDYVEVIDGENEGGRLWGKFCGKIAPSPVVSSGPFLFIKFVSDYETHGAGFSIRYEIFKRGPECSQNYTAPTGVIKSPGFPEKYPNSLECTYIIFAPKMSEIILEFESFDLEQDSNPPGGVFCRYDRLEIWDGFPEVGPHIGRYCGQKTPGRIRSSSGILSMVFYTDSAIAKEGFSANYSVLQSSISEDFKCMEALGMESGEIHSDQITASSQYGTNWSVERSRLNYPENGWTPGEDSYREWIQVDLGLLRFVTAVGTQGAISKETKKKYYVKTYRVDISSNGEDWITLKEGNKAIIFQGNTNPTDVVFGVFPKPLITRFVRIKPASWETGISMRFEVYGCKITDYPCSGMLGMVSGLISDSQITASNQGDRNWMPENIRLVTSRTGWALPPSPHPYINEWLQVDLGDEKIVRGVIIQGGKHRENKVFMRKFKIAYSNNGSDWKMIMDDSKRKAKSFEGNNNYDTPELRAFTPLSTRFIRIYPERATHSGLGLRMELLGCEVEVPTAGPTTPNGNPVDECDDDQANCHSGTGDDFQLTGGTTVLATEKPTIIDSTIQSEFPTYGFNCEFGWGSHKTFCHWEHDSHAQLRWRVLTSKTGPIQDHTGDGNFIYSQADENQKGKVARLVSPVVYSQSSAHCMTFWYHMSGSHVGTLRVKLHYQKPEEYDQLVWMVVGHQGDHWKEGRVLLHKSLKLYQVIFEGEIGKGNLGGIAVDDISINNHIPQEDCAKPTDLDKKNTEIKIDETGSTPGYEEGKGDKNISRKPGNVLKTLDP
Experimental: Therefore, we next asked whether Sema-AP binds directly to neuropilin in a co-immunoprecipitation assay. For these experiments, an N-terminal myc-tagged neuropilin protein lacking the neuropilin transmembrane and intracellular domains (myc-neuropilin^ex) was used to assess whether the extracellular domain of neuropilin can directly interact with Sema III. Myc-neuropilin^ex was expressed in COS cells and the tissue culture medium was then incubated with either Sema-AP or SEAP alone. Upon precipitation of the myc-neuropilin^ex with a monoclonal antibody directed against the myc epitope, co-precipitation of Sema-AP was determined by the presence of AP activity in the immune complex (FIG. 1F). In contrast, no AP activity above background levels was detected in anti-myc immune complexes collected from samples in which myc-neuropilin was incubated with SEAP alone.
Co-precipitation of Sema-AP and the Secreted, Extracellular Domain of Neuropilin COS cell supernatant containing myc-neuropilin^ex, 293 EBNA cell supernatant containing SEAP, or 293 EBNA cell supernatant containing Sema-AP was filter-sterilized and concentrated. Samples containing equal amounts of control supernatants or supernatants containing myc-neuropilin^ex were mixed with samples containing either Sema-AP or SEAP (equal amounts of AP activity). These mixtures were incubated at room temperature for 2 hours. […]

[2] = target: T2, rat neuropilin (neuropilin-1), full length (rat, UniProt Q9QWJ9 22-922); assay: AP staining of transfected COS cells
T2 construct: Expressed transiently on COS cells from pMT21-neuropilin
Experimental: FIGS. 1A to 1F. Sema-AP binds to neuropilin. COS cells were transfected with an expression vector encoding neuropilin (FIGS. 1A–1C) or the empty vector (FIG. 1D). After two days, cells were incubated with Sema-AP (FIG. 1A) or SEAP (FIG. 1B) and then processed for alkaline phosphatase activity, or cells were fixed and subjected to immunocytochemistry using anti-neuropilin IgG (FIGS. 1C and 1D). No neuropilin immunoreactivity was detected when COS cells expressing neuropilin were incubated with pre-immune IgG. (FIG. 1E) Anti-neuropilin immunoblot analysis of whole cell extracts prepared from COS cells that were transfected with the empty expression vector (lane 1) or an expression vector encoding neuropilin (lane 2). (FIG. 1F) Sema-AP binds directly to the extracellular domain of neuropilin. Either Sema-AP or SEAP was incubated with soluble myc-tagged neuropilin extracellular domain (myc-neuropilin^ex). Then, myc-neuropilin^ex was immunoprecipitated with an antibody directed against the myc epitope, and alkaline phosphatase activity in the immune complex was determined as described in the Examples. AP activity was measured as described in the Examples and is reported as OD$405$/second. Shown are the means +/− SEM of three independent experiments. Scale bar=25 μm.

[3] = target: Sema-AP binding sites / Sema III receptor(s) on NGF-dependent rat E14 DRG sensory neurons; assay: whole cell binding, Scatchard analysis, dissociated rat E14 DRG neurons
[4] = target: T2, rat neuropilin (neuropilin-1), full …; assay: whole cell binding, Scatchard analysis, COS cells transiently expressing neuropilin
Experimental: Because Coll-1 elicits biological effects at sub-nanomolar concentrations (Luo et al., 1993), we predicted that a bona fide Sema III receptor should bind to Sema III with high affinity. To determine the affinity of Sema-AP for neuropilin, neuropilin was transiently expressed in COS cells, and whole cell binding analyses were performed two days later (FIG. 3A). For comparison, the affinity of Sema-AP for its receptor(s) present on NGF-dependent sensory neurons prepared from dissociated E14 DRG was also determined (FIG. 3B). […] These binding affinities are similar to those recently described for netrins and their receptors (Keino-Masu et al., 1996; Leonardo et al., 1997) and Eph receptors and their ligands (Cheng and Flanagan, 1994; Monschau et al., 1997), and they are consistent with a role for neuropilin in Sema III-mediated growth cone collapse and in repulsive guidance of DRG neurons during neurodevelopment.
COS cells were transfected with 2 μg of pMT21-neuropilin, an expression vector encoding neuropilin, or either no DNA or the empty pMT21 expression vector using Lipofectamine (BRL), recovered in growth media, and then grown for 48 hours prior to binding analysis. Dissociated DRG neurons were cultured from E14 DRGs. […] Quantitiative cell surface binding was done essentially as described (Flanagan and Leder, 1990).

- binding result [1]: no binding
- binding result [2]: no binding
B1: secreted placental alkaline phosphatase (SEAP) (enzyme, UniProt P05187 23-511, looked up)
chain: IIPVEEENPDFWNREAAEALGAAKKLQPAQTAAKNLIIFLGDGMGVSTVTAARILKGQKKDKLGPEIPLAMDRFPYVALSKTYNVDKHVPDSGATATAYLCGVKGNFQTIGLSAAARFNQCNTTRGNEVISVMNRAKKAGKSVGVVTTTRVQHASPAGTYAHTVNRNWYSDADVPASARQEGCQDIATQLISNMDIDVILGGGRKYMFRMGTPDPEYPDDYSQGGTRLDGKNLVQEWLAKRQGARYVWNRTELMQASLDPSVTHLMGLFEPGDMKYEIHRDSTLDPSLMEMTEAALRLLSRNPRGFFLFVEGGRIDHGHHESRAYRALTETIMFDDAIERAGQLTSEEDTLSLVTADHSHVFSFGGYPLRGSSIFGLAPGKARDRKAYTVLLYGNGPGYVLKDGARPDVTESESGSPEYRQQSAVPLDEETHAGEDVAVFARGPQAHLVHGVQEQTFIAHVMAFAACLEPYTACDLAPPAGTTDAAHPG
notes: Control for the AP part of Sema-AP

- binding sites per cell (binding sites per cell) [3]: 20000
- Kd [4]: ~1.5 nM
B2: H-Sema III-alkaline phosphatase fusion protein (Sema-AP) (ligand, human, UniProt Q14563 21-771, looked up)
chain: NYQNGKNNVPRLKLSYKEMLESNNVITFNGLANSSSYHTFLLDEERSRLYVGAKDHIFSFDLVNIKDFQKIVWPVSYTRRDECKWAGKDILKECANFIKVLKAYNQTHLYACGTGAFHPICTYIEIGHHPEDNIFKLENSHFENGRGKSPYDPKLLTASLLIDGELYSGTAADFMGRDFAIFRTLGHHHPIRTEQHDSRWLNDPKFISAHLISESDNPEDDKVYFFFRENAIDGEHSGKATHARIGQICKNDFGGHRSLVNKWTTFLKARLICSVPGPNGIDTHFDELQDVFLMNFKDPKNPVVYGVFTTSSNIFKGSAVCMYSMSDVRRVFLGPYAHRDGPNYQWVPYQGRVPYPRPGTCPSKTFGGFDSTKDLPDDVITFARSHPAMYNPVFPMNNRPIVIKTDVNYQFTQIVVDRVDAEDGQYDVMFIGTDVGTVLKVVSIPKETWYDLEEVLLEEMTVFREPTAISAMELSTKQQQLYIGSTAGVAQLPLHRCDIYGKACAECCLARDPYCAWDGSACSRYFPTAKRRTRRQDIRNGDPLTHCSDLHHDNHHGHSPEERIIYGVENSSTFLECSPKSQRALVYWQFQRRNEERKEEIRVDDHIIRTDQGLLLRSLQQKDSGNYLCHAVEHGFIQTLLKVTLEVIDTEHLEELLHKDDDGDGSKTKEMSNSMTPSQKVWYRDFMQLINHPNLNTMDEFCEQVWKRDRKQRRQRPGHTPGNSNKWKHLQENKKGRNRRTHEFERAPRSV
notes: Made in 293 EBNA cells from pCEP4 and used as supernatant; also called Sema III-AP; Sema III-secreted placental alkaline phosphatase fusion protein; not shown: secreted placental alkaline phosphatase of vector pAPtag-1 (Flanagan and Leder, 1990), C-terminal to Sema III; limits an
